Source: doi:10.1101/162842

Biological target: mCardinal
Experiment: SEC + AUC

## mCardinal
  stoichiometry N: 2
